experiment: yeast display, Sf9 membrane polyspecificity reagent, FACS + sequencing; frameworks hold sequencing errors
Summary of the method: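 Polyreactivity labels are assigned by the sorting gate from which each nanobody was recovered. The gates were low and high (top ~1%), set on anti-HA fluorescence for expression and streptavidin fluorescence for reagent binding. Before sorting, galactose-induced (36–48 hours) yeast display cells were stained for 1 hour at 4 °C with 10% biotinylated, detergent-solubilized Sf9 membrane reagent.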

Sequence | polyreactivity (PSR sort gate)
QVQLVESGGGLVQAGGSLRLSCAASGFTFRWNAMGWYRQAPGKERELVAAITNDDSTYYADSVKGRFTISRDNAKNTVYLQMNSLKPEDTAVYYCNADLTQYDAGFDYWGQGTQVTVSS | low polyreactivity
QVQLVESGGGLVQAGGSLRLSCAASGFTFRWNGMGSYRQAPGKERELVAAISYDGTGTYYADSVKGRFTISRDNAKNTVYLQMNSLKPEDTAVYYCAKTYRDDTSLSGFDSWGQGTQVTVSS | high polyreactivity
QVQLVESGGGLVQAGGSLRLSCAASGFTFRWYAMGWYRQAPGKERELVAAISSGGGSTYYADSVKGRFTISRDNAKITVYLQMNSLKPEDTAVYYCNSRGTRIASGHYYWGQGTQVTVSS | high polyreactivity
QVQLVESGGGLVQAGGSLRLSCAASGFTFRWYAMGWYRQAPGKERELVAAITGSGGSTYYADSVKGRFTISRDNAKNTVYLQMNSLKPEDTAVYYCNRYGVRYYRYDYWGQGTQVTVSS | high polyreactivity
QVQLVESGGGLVQAGGSLRLSCAASGFTFRWYAMGWYRQAPGKERELVASISRRGGSTYYADSVKGRFTISRDNAKNTVYLQMNSLKPEDTAVYYCAADYYDYWGQGTQVTVSS | high polyreactivity
QVQLVESGGGLVQAGGSLRLSCAASGFTFRWYDMGWYRKAPGKERELVAAIDASDGSTYYADSVKGRFTISRDNAKNTVYLLMNSLKPEDTAVYYCAAEDYQPYFYLYWYDYWGQGTQVTVSS | high polyreactivity
QVQLVESGGGLVQAGGSLRLSCAASGFTFRWYTMGWYRQAPGKERELVASINWSTGTPYYADSVKGRFTISRDNAKNTVYLQMNSLNPEDTAVYYCNARFRGRVYDRFGYRGQGTQVTVSS | high polyreactivity
QVQLVESGGGLVQAGGSLRLSCAASGFTFRYNAMGWYRQAPGKERELVAAITYRGGSTYYADSVKGRFTISRDNAKNTVYLQMNSLKPEDTAVYYCAAVGDLWGYYWGQGSQVTVSS | low polyreactivity
QVQLVESGGGLVQAGGSLRLSCAASGFTFRYNDMGWYRQAPGKERELVAVISSDGTTNYADSVKGRFTISRDNAKNTVYLQMNSLKPEDTAVYYCAAWEFRGNAYYVYAFDYWGQGTQVTVSS | low polyreactivity
QVQLVESGGGLVQAGGSLRLSCAASGFTFRYYAKGWYRQAPVKERELVARISRGGNTYYADSVKGRLTISRDNAKNTVYLHMNSLKPEDTAVYYCAVDLTRTLSGMDYWGQGTQVTVSS | high polyreactivity
QVQLVESGGGLVQAGGSLRLSCAASGFTFRYYAMGCYRQAPGKVRELVAAITGSGTRTYYADSVKGRFTISRDNAKNTVYLQMNSLKPEDTALYYCNAPRQPRWFDYWGQGTQVTVSS | high polyreactivity
QVQLVESGGGLVQAGGSLRLSCAASGFTFRYYAMGSYRQAPGKERELVAAISAGGGSTYYADSVKGRFTISRDNAKNTVYLQMNSLKPEDTAVYYCAAAGARPGYDYWGQGTQVTVSS | high polyreactivity
QVQLVESGGGLVQAGGSLRLSCAASGFTFRYYAMGWSRQAPGKERELLAAITGRGGSTYYADSVKGRFTISRDNAKNTVYFQMNSLNPEDTAVSFCAARFTRVYAQVRNDYWGQGTQVTVSS | high polyreactivity
QVQLVESGGGLVQAGGSLRLSCAASGFTFRYYAMGWYRPAPGKERELVAAISSGGRTNYADSVKGRFTISRDNAKNTVYLQMNSLKPEDTAVYYCATASRRGDPRLRFYYWGQGTQVTVSS | high polyreactivity
QVQLVESGGGLVQAGGSLRLSCAASGFTFRYYAMGWYRQAPGKEREFVAAIRSSGTTTSYADSVKGRFTISRDNEKNTVYLQMNSLKPEDTAVYYCAAGYFGPQQYYYWGQGTQVTVSS | high polyreactivity
QVQLVESGGGLVQAGGSLRLSCAASGFTFRYYAMGWYRQAPGKERELVAAISSGGSTYYADSVKGRFTISRDNAKNTVYLQMNSLKPEDTAVYYCATYLAEYGYWGQGTQVTVSS | high polyreactivity
QVQLVESGGGLVQAGGSLRLSCAASGFTFRYYAMGWYRQAPGKERELVASISGTGGRTYADSVKGRFTISRDNAKNTVYLQMNSLKPEDTAVYYCAAWSYAYYYRLRYVSHDYWGQGTQVTVSS | high polyreactivity
QVQLVESGGGLVQAGGSLRLSCAASGFTFRYYAMGWYRQAPGKERELVASITSGGSTNYADSVKGRFTISRDNAKNTVYLQMNSLKPEDTAVYYCAAQPYKGTGYDYWGQGTQVTVSS | high polyreactivity
QVQLVESGGGLVQAGGSLRLSCAASGFTFRYYAMGWYRQAPGKERELVATITSGGRTYYADSVKGRFTISRDNAKNTVYLQMNSLKPEDTAVYYCAADVWYVRTKYGYDYWGQGTQVTVSS | high polyreactivity
QVQLVESGGGLVQAGGSLRLSCAASGFTFRYYVMGWYRQAPGKERELVATITWGGGSTYYADSVKGRFTISRDNAKNTVYLQMNSLKPEDPAVYYCAASLKWGRGVLARVLWYNYWGQGTQVTVSS | low polyreactivity
QVQLVESGGGLVQAGGSLRLSCAASGFTFSAYAIGWYRQAPGKETELVAAITLRGGSTYYADSVKGRFTISRDNAKNTVYLQMNSLNPEDTAVYYCAAERIYVAYDYWGQGTQLTVSS | low polyreactivity
QVQLVESGGGLVQAGGSLRLSCAASGFTFSAYTMGWYRQAPGKERELVAAINWSAANTYYADSVKGRFTISRDNAKNTVSLQMNSLKPEDTAVYYCNAEDDYTYDRSFGGYKYDYWGQGTQVTVSS | low polyreactivity

Sequence | polyreactivity (PSR sort gate)
QVQLVESGGGLVQAGGSLRLSCAASGFTFSAYTMGWYRQAPGKESELVAAINWSGANTYYADSVKGRFTISRDNAKNTVYLQMNSLKPEDTAVYFCNAEDDYTYDRSFGGYKYDYWGQGTQVTVSS | low polyreactivity
QVQLVESGGGLVQAGGSLRLSCAASGFTFSDNAMGWYRQAPGKERELVAAISRSGGNTHYADSVKGRFTISRDNAKNTVFLQMNSLKPEDTAVYYCAARPPGGYLYDYWGQGTQVTVSS | high polyreactivity
QVQLVESGGGLVQAGGSLRLSCAASGFTFSDYAMGWYRQAPGKDRELVATISNGDSPYYADSVKGRFTISRDNAKNTVYVQMNSLKPVDTAVNYCATDQPYGADPSNDFDYWGQGTQVTVSS | low polyreactivity
QVQLVESGGGLVQAGGSLRLSCAASGFTFSFYAMGWYRQAPGKERELVASISDSDGITFYADSVKGSFTISRDNAKNTVYLPMKSLKPEDTAVYYCAADVAIAIPFSYDYWGQGTQVTVSS | low polyreactivity
QVQLVESGGGLVQAGGSLRLSCAASGFTFSIYAMGWSRQAPGKERELVAAIRSSTASTYYADSVKGRFTISRDNAKNTVYLQMNSMKPEDTAVYYCAADTYRTRHIGVKFAFNSWGQGTQVTVSS | high polyreactivity
QVQLVESGGGLVQAGGSLRLSCAASGFTFSIYAMGWYRHAPGKERELVAAINWSGGSTYYADSVKGRFTISRDNAKNTVYLQMNSLKPEDTAVSYCATEATYGGGPGYEYWGQGTQVTVSS | low polyreactivity
QVQLVESGGGLVQAGGSLRLSCAASGFTFSIYAMGWYRQAPGKERELVAAISYRGTSTYYADSVKGRFTISRDNAKNTVYLQMNSLKPEDTAVYYCNKVSSPFVYTVYYWGQGTQVTVSS | high polyreactivity
QVQLVESGGGLVQAGGSLRLSCAASGFTFSKYTMGWYRPAPGKERELVAAITSGGSTNYADSVKGRFTISRDNAKNTVYLQMNSLKPEDTAVYYCNKRHIAHNGVGAGLELDYWGQGTQVTVSS | low polyreactivity
QVQLVESGGGLVQAGGSLRLSCAASGFTFSKYTMGWYRQAPGKERELVAAITSGGSTNYADSVKGRFTISRDNAKNTVYLQMNSLKPEDTAVYYCNKRHIAHNAVGAGLELDYWGQGTQVTVSS | low polyreactivity
QVQLVESGGGLVQAGGSLRLSCAASGFTFSLYAMGWYRQAPGKERELVASIDSDGVSTYYADSVKGRFTISRDNAKNTVYLQMNSLKPEDTAVYYCAADFWWGYISGPVRGRGYYWGQGTQVTVSS | low polyreactivity
QVQLVESGGGLVQAGGSLRLSCAASGFTFSLYAMGWYRQAPGKEWEVVAAISSRGGTTYYADSVKGRFTISRDNAKNTVYLQMNILKAEDTAVYYCAARYVYTRSAFDYWGQGTQVTVSS | high polyreactivity
QVQLVESGGGLVQAGGSLRLSCAASGFTFSLYDMGWYRQAPGKERELVADINGSGGSTYYSDSVKGRFTISRDNAKYTVYFQMNSLKPEDTAVYYCAAGPPSRWWYFVDYGYWGQGTQVTVSS | high polyreactivity
QVQLVESGGGLVQAGGSLRLSCAASGFTFSNNVMGWYREAPGKERELVAAISRRGGSTYYADSVKGRFTISRDNAKNTVYLQMNSLKPEDTAVYYCAATYPYYVDTSPGKDDHWRQGTQVTVSS | high polyreactivity
QVQLVESGGGLVQAGGSLRLSCAASGFTFSNYAMGWYRQAPGKERELVAAISWSGGSTYYADSVKGRFTISRDNAKNTVYLQMNSLKPEDTAVYYCNVLARPPYYKTRVNSPRSDYWGQGTQVTVSS | high polyreactivity
QVQLVESGGGLVQAGGSLRLSCAASGFTFSPYAMGGYRKAPGKERELVAAISSSGGSTYYADSVKGRFTISRDNAKNTVYLQMNSLKPEDTAVYYCATQGTRRPGKFYYWGQGTQVPVSS | high polyreactivity
QVQLVESGGGLVQAGGSLRLSCAASGFTFSRNVMGWYRQAPGKERELVADITLSGASTYYADSVKARFTISRDNAKNTVYLQMNSLKPEDTSVYSCAADPYHWRWGWRHDYWGQGTQVTVSS | low polyreactivity
QVQLVESGGGLVQAGGSLRLSCAASGFTFSRNVMGWYRQAPGKERELVADITLSGASTYYADSVKGRFTISRDNAKNTVYLQMNSLKPEDTAVYYCAADPYHWRCGWRHDYWGQGTQVTVSS | low polyreactivity
QVQLVESGGGLVQAGGSLRLSCAASGFTFSSNAMGWYRQAPGKERELVAAIRGSDGNTYYADSVKGRFTISRDNAKNTVYLQMNSLKPEDTAVYYCNARSYGYRTSRARYNYWGQGTQVTVSS | high polyreactivity
QVQLVESGGGLVQAGGSLRLSCAASGFTFSSNVMGWYRQAPGKERELVAAISTSGDGSTYYADSVKGRFTISRDNAKNTVYLQMNSLIPEDTAVYYCAAEYPDEDGVYEYDSWGQGTQVTVSS | low polyreactivity
QVQLVESGGGLVQAGGSLRLSCAASGFTFSSYAMGWYRQAPGKERELVAAISRSGGSTYYADSVKGRFTISRDNAKNTVYVQMNSLKPEDTAVYYCAARFFARHYYWGQGTQVTVSS | high polyreactivity
QVQLVESGGGLVQAGGSLRLSCAASGFTFSSYAMGWYRQAPGKERELVAAITRSGGNTYYADSVKGRFTISRDYAKNTVYLQMNSLKPEDTAVYDCAAPGKGISPSHYYWGQGTQVTVSS | high polyreactivity
